Test results as given in paper PMC4931565, “Higher‐order assemblies of oligomeric cargo receptor complexes form the membrane scaffold of the Cvt vesicle” (EMBO Reports, 2016).
“And” between values parts separate entries of the source, which are not always exact repeats. Identical values can stand only once. Values belong to the molecule of their own block, whether it stands above or below them.

B2: Saccharomyces cerevisiae Ams1 (alpha-mannosidase 1), wild type (natural protein, S. cerevisiae, UniProt P22855 1-1083, looked up)
chain: MSSEDIIYDPQFKPVQGIYENRLRQFIDTGGDYHDLNLPKFYDKKRISLDHDHVKVWWYQVSFERGSSPVSPDKRPSWKSIIERDKKGELEFREANINQPFGPSWSTTWFKVKISLPEDWVKSNEQLLFQWDCSNEGIVIDPKTLIPVTAFSGGERTEYVLPKTSDGKHFFYIEAGNNGMFGCGAGSTINPPDDNRFFHLRKADIVWPDLDARALYIDFWMLGDAARELPGDSWQKHQARQLGNAVMNLFDPNDRSSVRKCRELLQREYFDSFLESSKVYEQGESQVLTNVYGIGNCHIDTAWLWPFAETRRKIVRSWSSQCTLMDRFPEYKFVASQAQQFKWLLEDHPEFFNKVLIPKIQQSQFFAVGGTWVENDTNIPSGESLARQFFFGQRFFLKHFGLKSKIFWLPDTFGYSSQMPQLCRLSGIDKFLTQKLSWNNINSFPHSTFNWAGIDGSQLLTHMPPGNTYTADSHFGDVLRTAKQNKTPEYYGSGLMLYGKGDGGGGPTEEMLQKMRRIRSMNNRNGNVIPKLQVGITVDEFYDDILKRTNQGHDLPTWSGELYFEFHRGTYTSQAQTKKLMRLSEIKLHDLEWIAAKTSVLYPDSYKYPSKQINELWENVLLCQFHDVLPGSCIEMVYKYEAVPMLHNVVKECTSLIDKTVQFLQSQSKADLVEMRTLTWSKPEKVSEECSLNGSYTSSVTGYDDYIVLANGKLKVIICKKTGVITSITDETLGVEYLDTEHGRNKLGANQFVIYDDKPLGWQAWDTELYSVNQYKYVTKPKKVQVSCNTKEKCAVEVIFQISEKCKIKSVISLNATAVTDAKLSKVDISTTVENWDARNKFLKVEFPVNIRNDFASYETQFGITKRPTHYNTSWDVAKFEVCHHKFADYSEYSKGVSILNDCKYGFSTHGNLMRLSLLRSPKAPDAHADMGTHEIKYAIYPHRGALSSDTVKLAHEFNYCFKYKLPKDIGMNFDDIISISGDENVILSNIKRGEDDSAVKSNYSLNPRDEQSIVVRVYESLGGESFASLNTTLNLKRIEKVDNLEMKVYKSLTATRDESNHAINRIPIKLRPFEIASFRLYF
notes: alpha-mannosidase 1 (Ams1) of S. cerevisiae, 125-kDa full-length protein (model covers residues up to 1083); Expression from pGAPZ-His6-Ams1; also called His6-Ams1; his-Ams1; source: Pichia pastoris SMD1168, purified

How the values were obtained:
[1] = target: Chaetomium thermophilum mApe1 (Chaetomium thermophilum); assay: crystal structure; ct-mApe1, hanging drop, 4 C, 100 mM Hepes pH 6.6, 4 M sodium formate; 2.8 A
[2] = target: Chaetomium thermophilum mApe1 (Chaetomium thermophilum); assay: negative stain EM; purified protein or purified complex, 2% uranyl acetate, droplet technique; particles and class averages
[3] = target: the molecule itself; assay: as above
[4] = target: the molecule itself; assay: cryo-EM structure; His6-Ams1 0.4 mg/ml in 50 mM Tris-HCl, 175 mM NaCl, 75 mM imidazole; D2 symmetry, 6.3 A
[5] = target: B2; assay: pull-down; purified MBP-Atg19 or MBP (1 uM) mixed with his-Ams1 (1 uM), mApe1 (1 uM) or prApe1 (0.7 uM) overnight at 4 C in 50 mM Tris-HCl pH 7.5, 25 mM NaCl, 5 mM MgCl2, 1 mM DTT, 0.2% NP-40; captured on amylose beads; SDS-PAGE, Coomassie; settings: both partners purified
[6] = target: T1, Saccharomyces cerevisiae mApe1 (mature Ape1 lacking the N-terminal propeptide) (S. cerevisiae), P14904; assay: negative stain EM; purified protein or purified complex, 2% uranyl acetate, droplet technique; particles and class averages; settings: remark: other sources report otherwise
T1 chain: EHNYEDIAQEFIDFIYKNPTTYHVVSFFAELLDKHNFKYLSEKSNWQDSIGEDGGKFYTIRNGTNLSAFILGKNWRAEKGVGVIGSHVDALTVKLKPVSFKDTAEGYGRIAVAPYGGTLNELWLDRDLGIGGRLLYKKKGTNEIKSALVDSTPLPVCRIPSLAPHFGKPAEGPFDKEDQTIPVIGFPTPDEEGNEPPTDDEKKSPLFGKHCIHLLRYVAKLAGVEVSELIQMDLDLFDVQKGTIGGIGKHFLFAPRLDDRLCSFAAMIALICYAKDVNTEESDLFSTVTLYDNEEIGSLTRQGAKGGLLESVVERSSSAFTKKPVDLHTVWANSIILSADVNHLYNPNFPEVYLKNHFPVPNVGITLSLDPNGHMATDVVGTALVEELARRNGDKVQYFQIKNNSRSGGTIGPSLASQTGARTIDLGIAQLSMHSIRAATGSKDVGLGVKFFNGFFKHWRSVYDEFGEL

[7] = target: T1, Saccharomyces cerevisiae mApe1 (mature …); assay: negative stain EM; GraFix-purified sc-mApe1 (10-30% glycerol with 0-0.15% glutaraldehyde gradient, 50 mM Hepes pH 7.5, 150 mM NaCl); 3D reconstruction with tetrahedral symmetry, 24 A; settings: remark: other sources report otherwise

B1: Saccharomyces cerevisiae prApe1 (vacuolar aminopeptidase I with its N-terminal propeptide) (natural protein, S. cerevisiae, UniProt P14904 1-514, looked up)
chain: MEEQREILEQLKKTLQMLTVEPSKNNQIANEEKEKKENENSWCILEHNYEDIAQEFIDFIYKNPTTYHVVSFFAELLDKHNFKYLSEKSNWQDSIGEDGGKFYTIRNGTNLSAFILGKNWRAEKGVGVIGSHVDALTVKLKPVSFKDTAEGYGRIAVAPYGGTLNELWLDRDLGIGGRLLYKKKGTNEIKSALVDSTPLPVCRIPSLAPHFGKPAEGPFDKEDQTIPVIGFPTPDEEGNEPPTDDEKKSPLFGKHCIHLLRYVAKLAGVEVSELIQMDLDLFDVQKGTIGGIGKHFLFAPRLDDRLCSFAAMIALICYAKDVNTEESDLFSTVTLYDNEEIGSLTRQGAKGGLLESVVERSSSAFTKKPVDLHTVWANSIILSADVNHLYNPNFPEVYLKNHFPVPNVGITLSLDPNGHMATDVVGTALVEELARRNGDKVQYFQIKNNSRSGGTIGPSLASQTGARTIDLGIAQLSMHSIRAATGSKDVGLGVKFFNGFFKHWRSVYDEFGEL
notes: vacuolar aminopeptidase I (Ape1) of S. cerevisiae, 55-kDa zymogen including the N-terminal propeptide; only TEV cleavage of MBP is described there; also called sc-prApe1; full-length prApe1; source: Sf21, purified (glutathione beads, 3C cleavage, Superose 6); also co-expressed with MBP-Atg19 in Sf21 and co-purified on amylose beads; not shown: GST, N-terminal, cleaved; copies: 12
stoichiometry N [3]: 12

Molecule: B2
stoichiometry N [4]: 4

B3: Saccharomyces cerevisiae Ams1 W234E mutant (natural protein, S. cerevisiae, UniProt P22855 1-1083, looked up)
chain: MSSEDIIYDPQFKPVQGIYENRLRQFIDTGGDYHDLNLPKFYDKKRISLDHDHVKVWWYQVSFERGSSPVSPDKRPSWKSIIERDKKGELEFREANINQPFGPSWSTTWFKVKISLPEDWVKSNEQLLFQWDCSNEGIVIDPKTLIPVTAFSGGERTEYVLPKTSDGKHFFYIEAGNNGMFGCGAGSTINPPDDNRFFHLRKADIVWPDLDARALYIDFWMLGDAARELPGDSEQKHQARQLGNAVMNLFDPNDRSSVRKCRELLQREYFDSFLESSKVYEQGESQVLTNVYGIGNCHIDTAWLWPFAETRRKIVRSWSSQCTLMDRFPEYKFVASQAQQFKWLLEDHPEFFNKVLIPKIQQSQFFAVGGTWVENDTNIPSGESLARQFFFGQRFFLKHFGLKSKIFWLPDTFGYSSQMPQLCRLSGIDKFLTQKLSWNNINSFPHSTFNWAGIDGSQLLTHMPPGNTYTADSHFGDVLRTAKQNKTPEYYGSGLMLYGKGDGGGGPTEEMLQKMRRIRSMNNRNGNVIPKLQVGITVDEFYDDILKRTNQGHDLPTWSGELYFEFHRGTYTSQAQTKKLMRLSEIKLHDLEWIAAKTSVLYPDSYKYPSKQINELWENVLLCQFHDVLPGSCIEMVYKYEAVPMLHNVVKECTSLIDKTVQFLQSQSKADLVEMRTLTWSKPEKVSEECSLNGSYTSSVTGYDDYIVLANGKLKVIICKKTGVITSITDETLGVEYLDTEHGRNKLGANQFVIYDDKPLGWQAWDTELYSVNQYKYVTKPKKVQVSCNTKEKCAVEVIFQISEKCKIKSVISLNATAVTDAKLSKVDISTTVENWDARNKFLKVEFPVNIRNDFASYETQFGITKRPTHYNTSWDVAKFEVCHHKFADYSEYSKGVSILNDCKYGFSTHGNLMRLSLLRSPKAPDAHADMGTHEIKYAIYPHRGALSSDTVKLAHEFNYCFKYKLPKDIGMNFDDIISISGDENVILSNIKRGEDDSAVKSNYSLNPRDEQSIVVRVYESLGGESFASLNTTLNLKRIEKVDNLEMKVYKSLTATRDESNHAINRIPIKLRPFEIASFRLYF
notes: alpha-mannosidase 1 (Ams1) of S. cerevisiae with W234E in the N-terminal four-helix bundle; Same construct as m4 (pGAPZ-His6-Ams1) with the point mutation; also called W234E dimers; source: Pichia pastoris SMD1168, purified
stoichiometry N [3]: 2

Now from value to molecule:

stoichiometry N [1]: 12
stoichiometry N [2]: 12
Molecule: Chaetomium thermophilum mApe1 (natural protein)

binding result [5]: binds
B4: MBP-Atg19 (Saccharomyces cerevisiae Atg19 with N-terminal MBP) (natural protein, S. cerevisiae, UniProt P35193 1-415, looked up)
chain: MNNSKTNQQMNTSMGYPLTVYDECNKFQLIVPTLDANIMLWCIGQLSLLNDSNGCKHLFWQPNDKSNVRILLNNYDYGHLFKYLQCQRKCSVYIGEGTLKKYNLTISTSFDNFLDLTPSEEKESLCREDAHEDPVSPKAGSEEEISPNSTSNVVVSRECLDNFMKQLLKLEESLNKLELEQKVTNKEPNHRISGTIDIPEDRSELVNFFTELKTVKQLEDVFQRYHDYERLSQECDSKTEIASDHSKKETKIEVEPPNERSLQITMNQRDNSLYFQLFNNTNSVLAGNCKLKFTDAGDKPTTQIIDMGPHEIGIKEYKEYRYFPYALDLEAGSTIEIENQYGEVIFLGKYGSSPMINLRPPSRLSAESLQASQEPFYSFQIDTLPELDDSSIISTSISLSYDGDDNEKALTWEEL
notes: autophagy receptor Atg19 of S. cerevisiae, from cDNA; source: Sf21, purified (amylose beads, eluted with maltose); also in Sf21 lysate, co-expressed with prApe1; not shown: MBP, N-terminal, kept

stoichiometry N [6]: 12 and 6
stoichiometry N [7]: 12
B5: Saccharomyces cerevisiae mApe1 (mature Ape1 lacking the N-terminal propeptide), P14904 46-514 (natural protein)
chain: EHNYEDIAQEFIDFIYKNPTTYHVVSFFAELLDKHNFKYLSEKSNWQDSIGEDGGKFYTIRNGTNLSAFILGKNWRAEKGVGVIGSHVDALTVKLKPVSFKDTAEGYGRIAVAPYGGTLNELWLDRDLGIGGRLLYKKKGTNEIKSALVDSTPLPVCRIPSLAPHFGKPAEGPFDKEDQTIPVIGFPTPDEEGNEPPTDDEKKSPLFGKHCIHLLRYVAKLAGVEVSELIQMDLDLFDVQKGTIGGIGKHFLFAPRLDDRLCSFAAMIALICYAKDVNTEESDLFSTVTLYDNEEIGSLTRQGAKGGLLESVVERSSSAFTKKPVDLHTVWANSIILSADVNHLYNPNFPEVYLKNHFPVPNVGITLSLDPNGHMATDVVGTALVEELARRNGDKVQYFQIKNNSRSGGTIGPSLASQTGARTIDLGIAQLSMHSIRAATGSKDVGLGVKFFNGFFKHWRSVYDEFGEL
